Positions count from the first letter of the chain named. In names and notes the source's numbering stands.
B1: H39R N43H: M. sedula succinic semialdehyde reductase double mutant H39R N43H, SEQ ID No. 36 (protein, listed as Metallosphaera sedula)
chain: MKAAVLHTYKEPLSIEDVNISQPKAGEVKIKVKATGLCRSDVHVFEGKTPVPPPVVAGHEISGIVEEVGPGVTRVKPGDRVISAFIHPCGKCGNCVAGKENLCETFSQVRLKGVMPDGTSRLSKDGKEIRTFLGGGFAEYAIVGENALTRVPEDMDLEKVAVLGCAGLTGYGAISSSKIEPGDTVAVIGVGGVGLSTIQLLRASGAGRIIAVGTKKWKLDRAMELGATDVVNSKEIDPVKAIKEITGGGPQVVIEAGGNEDTIHMALDSVRIGGKVVLVGLPPATAMIPIRVASIVRGGIEVVGNYGGRPRVDMPKLLELVRQGRYDPSRLVTGRFRLEEINEAVKMLEEGEAIRSLIIP
B2: Ms-SSR: succinic semialdehyde reductase from Metallosphaera sedula, SEQ ID No. 16 (protein, listed as Metallosphaera sedula)
chain: B1 chain with R39H, H43N
B3: 4hbdh: 4-hydroxybutyrate dehydrogenase of P. gingivalis, SEQ ID No. 187 (protein, listed as Porphyromonas gingivalis)
chain: MQLFKLKSVTHHFDTFAEFAKEFCLGERDLVITNEFIYEPYMKACQLPCHFVMQEKYGQGEPSDEMMNNILADIRNIQFDRVIGIGGGTVIDISKLFVLKGLNDVLDAFDRKIPLIKEKELIIVPTTCGTGSEVTNISIAEIKSRHTKMGLADDAIVADHAIIIPELLKSLPFHFYACSAIDALIHAIESYVSPKASPYSRLFSEAAWDIILEVFKKIAEHGPEYRFEKLGEMIMASNYAGIAFGNAGVGAVHALSYPLGGNYHVPHGEANYQFFTEVFKVYQKKNPFGYIVELNWKLSKILNCQPEYVYPKLDELLGCLLTKKPLHEYGMKDEEVRGFAESVLKTQQRLLANNYVELTVDEIEGIYRRLY
B4: YPR1: methylbutyraldehyde reductase from Saccharomyces cerevisiae, SEQ ID No. 14 (protein, listed as Saccharomyces cerevisiae)
chain: MPATLKNSSATLKLNTGASIPVLGFGTWRSVDNNGYHSVIAALKAGYRHIDAAAIYLNEEEVGRAIKDSGVPREEIFITTKLWGTEQRDPEAALNKSLKRLGLDYVDLYLMHWPVPLKTDRVTDGNVLCIPTLEDGTVDIDTKEWNFIKTWELMQELPKTGKTKAVGVSNFSINNIKELLESPNNKVVPATNQIEIHPLLPQDELIAFCKEKGIVVEAYSPFGSANAPLLKEQAIIDMAKKHGVEPAQLIISWSIQRGYVVLAKSVNPERIVSNFKIFTLPEDDFKTISNLSKVHGTKRVVDMKWGSFPIFQ
B5: YqhD: alcohol dehydrogenase of E. coli, SEQ ID No. 185 (protein, listed as Escherichia coli)
chain: MNNFNLHTPTRILFGKGAIAGLREQIPHDARVLITYGGGSVKKTGVLDQVLDALKGMDVLEFGGIEPNPAYETLMNAVKLVREQKVTFLLAVGGGSVLDGTKFIAAAANYPENIDPWHILQTGGKEIKSAIPMGCVLTLPATGSESNAGAVISRKTTGDKQAFHSAHVQPVFAVLDPVYTYTLPPRQVANGVVDAFVHTVEQYVTKPVDAKIQDRFAEGILLTLIEDGPKALKEPENYDVRANVMWAATQALNGLIGAGVPQDWATHMLGHELTAMHGLDHAQTLAIVLPALWNEKRDTKRAKLLQYAERVWNITEGSDDERIDAAIAATRNFFEQLGVPTHLSDYGLDGSSIPALLKKLEEHGMTQLGENHDITLDVSRRIYEAAR

Experiment: Test for malate semialdehyde reductase (DHB dehydrogenase) activity
Type: biochemical
Conditions: for Activity on malate semialdehyde (cofactor NADH) / Activity on malate semialdehyde (cofactor NADPH): 10 mM malate semialdehyde, 30° C., average of at least two experiments
Experimental: Test for Malate Semialdehyde Reductase Activity: (L)-Malate semialdehyde+NAD(P)H→(L)-2,4-dihydroxybutyric acid+NAD(P) Reaction scheme:
The assay mixture contained 200 mM Hepes (pH 7.5), 50 mM KCl, 5 mM MgCl2, 0.24 mM NADH or NADPH, and appropriate amounts of purified enzyme or cell extract. Reactions were started by adding 10 mM (L)-malate semialdehyde (malate semialdehyde was prepared freshly for each test, see Example 3). Enzymatic assays were carried out at 30° C. in 96-well flat bottomed microtiter plates in a final volume of 250 μL. The reactions were followed by the characteristic absorption of NAD(P)H at 340 nm (εNADPH=6.22 mM^−1 cm^−1) in a microplate reader (BioRad 680XR).

| Molecule | affinity for malate semialdehyde compared to the wild type enzyme (in words) | Activity on malate semialdehyde (cofactor NADH) | Activity on malate semialdehyde (cofactor NADPH) |
| --- | --- | --- | --- |
| B1 | improved affinity |  |  |
| B2 |  | 4.9 μmol/(min * mg_prot) | 4.9 μmol/(min * mg_prot) |
| B3 |  | 33 μmol/(min * mg_prot) |  |
| B4 |  |  | 0.19 μmol/(min * mg_prot) |
| B5 |  |  | 1.2 μmol/(min * mg_prot) |

— patent US9890400B2, “Method of production of 2,4-dihydroxybutyric acid” (ADISSEO FRANCE S.A.S., priority 2012, dated 2018)
